Results as given in the RNAGym collection of RNA variant scans (doi:10.7554/elife.80360).

B1: Hairpin Ribozyme (parent)
chain: GUCCUCUUUCACGUGCGCGUGAAAGAGAGAAGUGAACCAGAGAAACACACGUUGUGGUAUAUUACCUGGUA

Variants of: B1
Assay: self-cleavage, relative activity (ratio to wild type); higher = more cleavage; co-transcriptional

| Variant | self-cleavage |
| --- | --- |
| U33G U67A | 0.146 |
| U33G U67C | 0.111 |
| A35C A71G | 0.422 |
| A35G U58C | 1.11 |
| U33G U60G | 0.0365 |
| U33G U60A | 0.0846 |
| A35C C65A | 1.08 |
| U33C U63A | 0.142 |
| A35C A59G | 0.124 |
| A35C A59U | 0.105 |
| A36C G54U | 0.33 |
| A36C G54C | 0.327 |
| A36C G54A | 0.467 |
| G34C C66A | 0.693 |
| A36C | 0.659 |
| A36G | 1.03 |
| G34C G57C | 0.195 |
| A35U U53A | 0.785 |
| U33G G54U | 0.0691 |
| U33G G54C | 0.145 |
| U33G G54A | 0.111 |
| G34U G69A | 0.93 |
| G34C C48G | 0.16 |
| U33C A47G | 0.219 |

| Variant | self-cleavage |
| --- | --- |
| A35U G56A | 0.143 |
| A35U G56U | 0.221 |
| A35G A39G | 0.348 |
| A35C U60C | 1.14 |
| A35C U60A | 0.664 |
| A35C U60G | 0.649 |
| A35G G51C | 0.689 |
| U33G C65G | 0.122 |
| A35G | 0.931 |
| A35U | 0.811 |
| A35C | 1.02 |
| U33G U63G | 0.198 |
| G34U A35C | 1.2 |
| G34U A35G | 1.47 |
| G34C A49G | 1.42 |
| A35G G68C | 0.236 |
| A36C C46A | 0.026 |
| A36C A59U | 0.157 |
| A35G U52G | 0.97 |
| A36G A41C | 1.1 |
| A35G G57C | 0.268 |
| G34A A47G | 0.302 |
| G34A A47U | 0.144 |
| G34A A47C | 0.451 |

| Variant | self-cleavage |
| --- | --- |
| G34U U60G | 1.34 |
| G34U U60C | 1.42 |
| U33G G51U | 0.252 |
| U33G G51C | 0.202 |
| G34U G42A | 0.883 |
| G34C C65G | 1.07 |
| G34C C65U | 1.04 |
| U33G U70C | 0.101 |
| A36C U63C | 0.259 |
| A36G A49G | 0.339 |
| A35C G57A | 0.0715 |
| A35U G69C | 0.368 |
| A36G A44U | 0.0711 |
| U33C U60A | 0.14 |
| U33C U60G | 0.0999 |
| A35U C50U | 0.18 |
| A36G A39G | 0.513 |
| A36G A39U | 0.517 |
| U33C A61U | 0.163 |
| U33C A61C | 0.074 |
| G34C G68C | 0.484 |
| A36C U58G | 0.595 |
| A35C A64U | 0.192 |
| A36C C65U | 0.118 |

| Variant | self-cleavage |
| --- | --- |
| U33G A39C | 0.149 |
| A35U A64U | 0.178 |
| A35U A64G | 0.465 |
| A36C C38A | 0.253 |
| A36C C38U | 0.274 |
| A36C C38G | 0.117 |
| G34A A43G | 0.0724 |
| A35C G40U | 0.149 |
| A35G C46A | 0.125 |
| A35C U58C | 0.798 |
| A35U U55G | 0.281 |
| A35U U55C | 0.274 |
| U33G G68U | 0.0922 |
| U33G G68A | 0.151 |
| A36C U70A | 0.958 |
| G34A U70C | 1.05 |
| U33C G51C | 0.0825 |
| G34U U67A | 0.876 |
| G34U U67C | 0.976 |
| G34U A45C | 0.213 |
| A35U A49U | 0.155 |
| U33C U58C | 0.169 |
| U33C U55A | 0.0653 |
| A36C A45C | 0.236 |

| Variant | self-cleavage |
| --- | --- |
| A35U C46A | 0.16 |
| A35U C46U | 0.143 |
| G34A U53G | 1.17 |
| A35C C66U | 0.558 |
| G34C A39C | 0.9 |
| A35U A43U | 0.0408 |
| G34A C50U | 0.653 |
| A35C C50U | 0.438 |
| A35C C50G | 0.37 |
| G34A A61G | 0.091 |
| G34A C48U | 0.191 |
| U33G A43G | 0.282 |
| G34C U52G | 0.379 |
| G34C U70C | 1.42 |
| A36C U52A | 0.768 |
| A36C U52G | 0.558 |
| U33G A61U | 0.0863 |
| U33G A61G | 0.229 |
| A36C A64U | 0.309 |
| U33C A44G | 0.0547 |
| U33C A44U | 0.195 |
| G34U G57C | 0.552 |
| G34U G57A | 0.887 |
| G34C A59C | 0.145 |

| Variant | self-cleavage |
| --- | --- |
| G34C A59U | 0.202 |
| U33G C50G | 0.12 |
| A36C U55C | 0.0703 |
| A35C G54U | 0.56 |
| A35C G54A | 0.483 |
| A35U A45G | 0.0965 |
| A35U A45C | 0.112 |
| A36C G51A | 0.799 |
| U33G G34C | 0.337 |
| A35U U67A | 0.126 |
| A35U U67G | 0.161 |
| A36C A39G | 0.363 |
| A36C A39U | 0.137 |
| A35C C48G | 0.131 |
| G34U G56C | 0.409 |
| U33C G56A | 0.0589 |
| U33C G56C | 0.167 |
| U33G U55C | 0.117 |
| G34A U52A | 1.31 |
| A35G U62G | 0.139 |
| G34A C66A | 0.469 |
| G34U G54A | 1.3 |
| A35U G57U | 0.311 |
| A35U G57C | 0.116 |

| Variant | self-cleavage |
| --- | --- |
| A35G C48A | 0.198 |
| A36G A45C | 0.189 |
| U33G G69U | 0.123 |
| U33G G69A | 0.0603 |
| A35G A61G | 0.185 |
| G34U A44C | 0.202 |
| A35G A43C | 0.118 |
| G34U A41U | 1.53 |
| G34A C65G | 0.477 |
| G34C C37A | 0.898 |
| G34C C37G | 0.781 |
| U33C C65U | 0.2 |
| U33G G42C | 0.166 |
| A35G G54C | 0.444 |
| U33G A64U | 0.144 |
| A36C C50A | 0.0511 |
| A36C C50G | 0.131 |
| U33G G40U | 0.0849 |
| U33G G40C | 0.0649 |
| U33G G40A | 0.245 |
| G34U C38U | 1.42 |
| G34U C38G | 0.595 |
| G34C A71C | 1.76 |
